Measured values taken from patent publication US20240124606A1.

How the values were obtained:
mouse CD73 (mouse) = mouse CD73 (mouse) (UniProt Q61503); assay: flow cytometry, murine E0771 breast cancer cells, isotype control; PE against SSC-A
human CD73 (human) [1] = target: T1, human CD73 (human) (UniProt P21589); assay: flow cytometry, human PC3 prostate cancer cells, isotype control plot above the E7 plot; CD73-PE against SSC-A
T1 sequence: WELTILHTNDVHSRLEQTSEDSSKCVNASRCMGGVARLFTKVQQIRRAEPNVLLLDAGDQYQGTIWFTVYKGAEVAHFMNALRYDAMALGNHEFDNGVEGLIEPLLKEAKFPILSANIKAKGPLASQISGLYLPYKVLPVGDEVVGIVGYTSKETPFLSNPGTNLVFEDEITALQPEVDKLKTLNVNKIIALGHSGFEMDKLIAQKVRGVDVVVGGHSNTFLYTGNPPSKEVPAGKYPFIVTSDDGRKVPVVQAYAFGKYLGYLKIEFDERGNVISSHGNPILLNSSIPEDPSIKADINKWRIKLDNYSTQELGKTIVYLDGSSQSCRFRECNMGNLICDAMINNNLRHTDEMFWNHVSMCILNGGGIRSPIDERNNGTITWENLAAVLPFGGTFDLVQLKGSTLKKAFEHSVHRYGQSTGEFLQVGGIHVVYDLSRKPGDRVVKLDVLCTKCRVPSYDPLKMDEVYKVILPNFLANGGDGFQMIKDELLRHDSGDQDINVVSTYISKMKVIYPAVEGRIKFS

human CD73 (human) [2] = target: T1, human CD73 (human); assay: flow cytometry, human PC3 prostate cancer cells, isotype control plot above the 2C5 plot (its gate is drawn larger than in the other plots); CD73-PE against SSC-A
human CD73 (human) [3] = target: T1, human CD73 (human); assay: flow cytometry, human PC3 prostate cancer cells, 10 ug/ml antibody, PE anti-mIgG secondary antibody; CD73-PE against SSC-A

UniProt Q61503, sequence (Q61503 29-551 limits assumed): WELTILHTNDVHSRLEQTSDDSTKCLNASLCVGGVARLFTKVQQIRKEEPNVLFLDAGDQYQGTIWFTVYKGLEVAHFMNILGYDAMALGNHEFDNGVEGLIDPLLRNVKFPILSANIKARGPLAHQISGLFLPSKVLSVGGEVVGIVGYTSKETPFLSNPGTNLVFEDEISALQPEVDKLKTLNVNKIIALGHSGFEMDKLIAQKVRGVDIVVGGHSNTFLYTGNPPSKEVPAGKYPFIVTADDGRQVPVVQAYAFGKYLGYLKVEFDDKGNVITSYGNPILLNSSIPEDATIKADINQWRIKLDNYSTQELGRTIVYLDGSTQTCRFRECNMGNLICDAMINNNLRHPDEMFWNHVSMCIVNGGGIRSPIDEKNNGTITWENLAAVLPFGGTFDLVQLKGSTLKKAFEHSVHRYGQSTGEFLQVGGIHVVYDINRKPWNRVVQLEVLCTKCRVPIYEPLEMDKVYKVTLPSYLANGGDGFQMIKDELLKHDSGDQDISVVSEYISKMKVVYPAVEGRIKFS

| percent of cells in the CD73 gate (mouse CD73 (mouse)) | percent of cells in the CD73-PE gate (human CD73 (human) [1]) | percent of cells in the CD73-PE gate (human CD73 (human) [2]) | percent of cells in the CD73-PE gate (human CD73 (human) [3]) | Molecule |
| --- | --- | --- | --- | --- |
| 0.8 | 1.02 | 2.84 | – | Isotype (antibody) |
| – | – | – | 99.7 | 2C5 (a commercially-available anti-CD73 mAb, Astrazeneca) (antibody, from another filing, V domains shown) VH: EVQLLESGGGLVQPGGSLRLSCAASGFTFSSYAMSWVRQAPGKGLEWVSAISGSGGSTYYADSVKRRFTISRDNSKNTLYLQMNSLRAEDTAVYYCARDKGYYWYMDVWGQGTMVTVSS VL: QSVLTQPPSVSVSPGQTASITCSGDKVGDKYASWYQQKPGQSPVLVIYEDTKRLSGIPERFSGSNSGNTATLTISGTQAMDEADYYCQAWDTSFWVFGGGTKLTVL |
